Ends that are not written are not given here.
Assays:
human serum albumin [1] = target: T1, human serum albumin (human, UniProt P02768 25-609); assay: SPR (BIAcore 3000), HSA on CM5 chip, polypeptide injected, 1:1 model
T1 construct: Bought protein; coated on plates (ELISA) or coupled to a CM5 chip (SPR); also called HSA; human albumin
Experimental: Signal of conjugated channel subtracted by that of unconjugated channel of injected solution was calculated as the amount of bound peptides during a defined period, as shown in FIG. 4. PBS buffer containing 0.05% Tween-20 was used for dilution of all samples. SPR curve was evaluated by BIAcore™ kinetics evaluation software (Version 4.1). […] Kd was calculated from binding rate (kₒₙ) and dissociating rate (koff), i.e. dissociation constant.

human serum albumin [2] = target: T1, human serum albumin; assay: phage ELISA on plate-coated HSA, sample row, dilution column 1 of 12
human serum albumin [3] = target: T1, human serum albumin; assay: phage ELISA on plate-coated HSA, Table 3 absorbance (sample minus blank), dilution column 7 of 12
human serum albumin [4] = target: T1, human serum albumin; assay: phage ELISA on plate-coated HSA, sample row, dilution column 2 of 12
human serum albumin [5] = target: T1, human serum albumin; assay: phage ELISA on plate-coated HSA, sample row, dilution column 3 of 12

T1 sequence (P02768 25-609 limits assumed): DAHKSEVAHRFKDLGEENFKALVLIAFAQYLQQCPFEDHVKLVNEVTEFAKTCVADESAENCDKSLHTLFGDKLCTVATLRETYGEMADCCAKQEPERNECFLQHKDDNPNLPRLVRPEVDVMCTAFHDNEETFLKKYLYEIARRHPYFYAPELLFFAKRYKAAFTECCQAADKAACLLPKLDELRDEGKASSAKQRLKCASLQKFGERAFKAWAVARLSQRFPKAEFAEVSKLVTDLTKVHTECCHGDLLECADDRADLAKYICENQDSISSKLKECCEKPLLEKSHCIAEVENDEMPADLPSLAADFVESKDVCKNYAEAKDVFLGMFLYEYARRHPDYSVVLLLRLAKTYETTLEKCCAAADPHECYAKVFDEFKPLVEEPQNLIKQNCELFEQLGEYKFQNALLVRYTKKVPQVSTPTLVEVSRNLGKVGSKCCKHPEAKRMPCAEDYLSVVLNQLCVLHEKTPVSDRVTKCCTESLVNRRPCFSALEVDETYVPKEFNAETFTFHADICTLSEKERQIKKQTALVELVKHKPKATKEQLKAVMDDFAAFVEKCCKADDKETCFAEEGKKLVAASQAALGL

B1: DP5.1 fusion polypeptide (peptide)
peptide: LPWHLKYREPPR
modifications: not fully specified; also: fusion polypeptide ABP-LK-GLP, linker and GLP-1 part not given here
notes: also called ABP-LK-GLP; not shown: rest of DP5.1 (any N-terminal Pro, linker, GLP-1 part) is printed nowhere
Kd (human serum albumin [1]): 4.6 µM

B2: Phage ID NO. 7 (M13 phage displaying the peptide of SEQ ID NO. 7, SLFRHQHATPQI) (peptide)
peptide: SLFRHQHATPQI
modifications: also: displayed on M13 phage coat protein
notes: Tested as whole phage particles, not as free peptide; not shown: not described
absorbance at 405 nm (human serum albumin [2]): 0.08
absorbance at 405 nm (human serum albumin [3]): 0.1
absorbance at 405 nm (human serum albumin [4]): 0.08

B3: Phage ID NO. 3 (M13 phage displaying the peptide of SEQ ID NO. 3, DICLPRWGCLWE) (peptide)
peptide: DICLPRWGCLWE
modifications: not fully specified (bridges); cysteine pairing not given here; also: displayed on M13 phage coat protein
notes: as for B2
absorbance at 405 nm (human serum albumin [5]): 0.1

Reference: US20100075897A1, “METHOD FOR S[…] BIOACTIVE PEPTIDES AND APPLICATION THEREOF” (JINAN UNIVERSITY, priority 2008, published 2010)
